Earlier results, collected in paper PMC5662687.

Target: ICAM-1 (Homo sapiens) (UniProt P05362)
Sequence (P05362 28-480): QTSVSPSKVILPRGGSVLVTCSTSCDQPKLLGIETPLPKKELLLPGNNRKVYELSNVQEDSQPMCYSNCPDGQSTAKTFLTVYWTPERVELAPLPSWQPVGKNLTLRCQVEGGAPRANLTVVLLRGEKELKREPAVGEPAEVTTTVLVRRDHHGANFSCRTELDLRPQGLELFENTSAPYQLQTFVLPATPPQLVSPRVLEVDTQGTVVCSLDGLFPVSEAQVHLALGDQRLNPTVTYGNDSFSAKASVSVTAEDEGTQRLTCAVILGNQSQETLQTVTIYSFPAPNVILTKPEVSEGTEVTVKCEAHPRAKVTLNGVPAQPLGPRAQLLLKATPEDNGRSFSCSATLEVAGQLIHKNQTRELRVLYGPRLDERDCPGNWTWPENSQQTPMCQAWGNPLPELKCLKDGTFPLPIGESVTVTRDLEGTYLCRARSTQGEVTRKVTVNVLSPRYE

Sequence of LFA-1 (P20701 26-1090): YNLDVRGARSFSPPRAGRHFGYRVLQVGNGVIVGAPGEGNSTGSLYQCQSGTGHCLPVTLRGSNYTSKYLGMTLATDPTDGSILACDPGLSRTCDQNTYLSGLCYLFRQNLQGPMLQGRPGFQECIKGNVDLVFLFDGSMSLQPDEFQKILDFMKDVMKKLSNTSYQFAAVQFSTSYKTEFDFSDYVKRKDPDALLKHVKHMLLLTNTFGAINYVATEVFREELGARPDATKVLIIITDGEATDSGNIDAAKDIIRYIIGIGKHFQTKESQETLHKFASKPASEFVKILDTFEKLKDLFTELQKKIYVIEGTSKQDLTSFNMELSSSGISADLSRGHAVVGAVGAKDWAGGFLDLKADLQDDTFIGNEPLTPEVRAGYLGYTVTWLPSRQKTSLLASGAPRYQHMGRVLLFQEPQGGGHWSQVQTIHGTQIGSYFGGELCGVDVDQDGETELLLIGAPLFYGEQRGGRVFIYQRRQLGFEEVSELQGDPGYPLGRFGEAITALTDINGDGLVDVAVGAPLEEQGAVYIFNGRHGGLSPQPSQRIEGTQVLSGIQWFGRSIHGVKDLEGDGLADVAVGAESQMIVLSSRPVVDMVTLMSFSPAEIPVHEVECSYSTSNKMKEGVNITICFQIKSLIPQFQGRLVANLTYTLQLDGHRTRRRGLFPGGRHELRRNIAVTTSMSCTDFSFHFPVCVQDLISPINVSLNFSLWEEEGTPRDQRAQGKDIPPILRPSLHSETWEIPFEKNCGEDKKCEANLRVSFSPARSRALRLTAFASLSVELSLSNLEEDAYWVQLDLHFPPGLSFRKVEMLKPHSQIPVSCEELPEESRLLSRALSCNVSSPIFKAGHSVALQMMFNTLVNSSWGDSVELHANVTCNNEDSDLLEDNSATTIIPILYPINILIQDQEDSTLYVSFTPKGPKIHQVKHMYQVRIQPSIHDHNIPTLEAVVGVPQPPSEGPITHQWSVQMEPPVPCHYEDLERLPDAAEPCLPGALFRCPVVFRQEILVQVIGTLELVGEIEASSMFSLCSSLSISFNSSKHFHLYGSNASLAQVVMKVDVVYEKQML
Sequence of LFA-1 (P05107 23-700, further chain): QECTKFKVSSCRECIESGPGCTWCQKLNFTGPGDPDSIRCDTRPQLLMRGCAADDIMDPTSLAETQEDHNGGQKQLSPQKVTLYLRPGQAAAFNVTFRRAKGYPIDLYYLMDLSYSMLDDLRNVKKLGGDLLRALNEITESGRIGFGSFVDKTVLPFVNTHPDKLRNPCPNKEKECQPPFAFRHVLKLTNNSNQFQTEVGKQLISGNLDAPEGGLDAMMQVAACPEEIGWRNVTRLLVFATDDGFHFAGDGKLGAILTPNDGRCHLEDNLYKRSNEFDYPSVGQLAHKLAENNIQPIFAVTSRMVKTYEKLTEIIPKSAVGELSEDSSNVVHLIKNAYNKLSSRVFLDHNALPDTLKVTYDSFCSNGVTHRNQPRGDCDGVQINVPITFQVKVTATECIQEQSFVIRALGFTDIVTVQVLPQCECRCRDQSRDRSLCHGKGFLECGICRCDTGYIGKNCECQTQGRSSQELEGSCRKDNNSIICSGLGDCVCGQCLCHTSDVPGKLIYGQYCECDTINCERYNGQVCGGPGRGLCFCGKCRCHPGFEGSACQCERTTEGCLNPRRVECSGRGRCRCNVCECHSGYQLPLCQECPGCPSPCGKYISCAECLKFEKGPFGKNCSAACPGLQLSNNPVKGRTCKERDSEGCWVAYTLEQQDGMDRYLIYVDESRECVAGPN

Kd: 1000 µM
Substance: LFA-1 (from UniProt P20701)
